Experimental data published in patent US20140087995A1 (published 2014).
Numbered stars: 1 amine (or outer) side, 2 acyl side, 3 side chain; on linkers, the order of the positions; unused ones are H or OH. Bridge positions count the residues as written; N and C are the ends. Side chains are listed from the residue outwards. Ends that are not written are not given here. * marks the point of attachment. C20 diacid = O=C(O)CCCCCCCCCCCCCCCCCCC(=O)*; C18 diacid = O=C(O)CCCCCCCCCCCCCCCCC(=O)*; C16 diacid = O=C(O)CCCCCCCCCCCCCCC(=O)*; γGlu = O=C(O)[C@H](CCC(=O)[*:2])N[*:1]

T1: human calcitonin receptor (human, UniProt P30988 25-474)
T1 construct: whole, on cells; Used as cell membranes; also called hCTR; hCT
T1 sequence (looked up): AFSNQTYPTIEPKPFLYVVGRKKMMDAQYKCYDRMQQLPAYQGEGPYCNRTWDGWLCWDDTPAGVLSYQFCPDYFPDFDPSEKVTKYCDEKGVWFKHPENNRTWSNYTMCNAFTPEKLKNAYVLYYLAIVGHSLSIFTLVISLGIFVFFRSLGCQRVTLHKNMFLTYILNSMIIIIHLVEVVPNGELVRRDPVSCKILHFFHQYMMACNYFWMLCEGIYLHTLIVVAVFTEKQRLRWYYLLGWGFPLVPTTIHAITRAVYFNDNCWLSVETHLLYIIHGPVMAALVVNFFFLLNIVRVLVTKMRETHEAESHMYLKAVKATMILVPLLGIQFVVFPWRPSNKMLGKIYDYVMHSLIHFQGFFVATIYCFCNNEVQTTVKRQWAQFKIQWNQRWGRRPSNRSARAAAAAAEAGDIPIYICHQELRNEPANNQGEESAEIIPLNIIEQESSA

B1: N^ε1-[(4S)-4-carboxy-4-(17-carboxyheptadecanoylamino)butanoyl]-[Arg17,Pro21,Pro27,His34]-h-amylin (peptide)
peptide: K([γGlu-C18 diacid])CNTATCATQRLANFLRHSSPNFGAIPSSTNVGHNTY-NH2
modifications: disulfide 2-7; N-terminus assumed
SMILES: CC[C@H](C)[C@H](NC(=O)[C@H](C)NC(=O)CNC(=O)[C@H](Cc1ccccc1)NC(=O)[C@H](CC(N)=O)NC(=O)[C@@H]1CCCN1C(=O)[C@H](CO)NC(=O)[C@H](CO)NC(=O)[C@H](Cc1c[nH]cn1)NC(=O)[C@H](CCCNC(=N)N)NC(=O)[C@H](CC(C)C)NC(=O)[C@H](Cc1ccccc1)NC(=O)[C@H](CC(N)=O)NC(=O)[C@H](C)NC(=O)[C@H](CC(C)C)NC(=O)[C@H](CCCNC(=N)N)NC(=O)[C@H](CCC(N)=O)NC(=O)[C@@H](NC(=O)[C@H](C)NC(=O)[C@@H]1CSSC[C@H](NC(=O)[C@@H](N)CCCCNC(=O)CC[C@H](NC(=O)CCCCCCCCCCCCCCCCC(=O)O)C(=O)O)C(=O)N[C@@H](CC(N)=O)C(=O)N[C@@H]([C@@H](C)O)C(=O)N[C@@H](C)C(=O)N[C@@H]([C@@H](C)O)C(=O)N1)[C@@H](C)O)C(=O)N1CCC[C@H]1C(=O)N[C@@H](CO)C(=O)N[C@@H](CO)C(=O)N[C@H](C(=O)N[C@@H](CC(N)=O)C(=O)N[C@H](C(=O)NCC(=O)N[C@@H](Cc1c[nH]cn1)C(=O)N[C@@H](CC(N)=O)C(=O)N[C@H](C(=O)N[C@@H](Cc1ccc(O)cc1)C(N)=O)[C@@H](C)O)C(C)C)[C@@H](C)O
B2: N^ε1-[(4S)-4-carboxy-4-(15-carboxypentadecanoylamino)butanoyl]-[Arg17,Pro21,Pro27,His34]-h-amylin (peptide)
peptide: K([γGlu-C16 diacid])CNTATCATQRLANFLRHSSPNFGAIPSSTNVGHNTY-NH2
modifications: disulfide 2-7; N-terminus assumed
SMILES: CC[C@H](C)[C@H](NC(=O)[C@H](C)NC(=O)CNC(=O)[C@H](Cc1ccccc1)NC(=O)[C@H](CC(N)=O)NC(=O)[C@@H]1CCCN1C(=O)[C@H](CO)NC(=O)[C@H](CO)NC(=O)[C@H](Cc1c[nH]cn1)NC(=O)[C@H](CCCNC(=N)N)NC(=O)[C@H](CC(C)C)NC(=O)[C@H](Cc1ccccc1)NC(=O)[C@H](CC(N)=O)NC(=O)[C@H](C)NC(=O)[C@H](CC(C)C)NC(=O)[C@H](CCCNC(=N)N)NC(=O)[C@H](CCC(N)=O)NC(=O)[C@@H](NC(=O)[C@H](C)NC(=O)[C@@H]1CSSC[C@H](NC(=O)[C@@H](N)CCCCNC(=O)CC[C@H](NC(=O)CCCCCCCCCCCCCCC(=O)O)C(=O)O)C(=O)N[C@@H](CC(N)=O)C(=O)N[C@@H]([C@@H](C)O)C(=O)N[C@@H](C)C(=O)N[C@@H]([C@@H](C)O)C(=O)N1)[C@@H](C)O)C(=O)N1CCC[C@H]1C(=O)N[C@@H](CO)C(=O)N[C@@H](CO)C(=O)N[C@H](C(=O)N[C@@H](CC(N)=O)C(=O)N[C@H](C(=O)NCC(=O)N[C@@H](Cc1c[nH]cn1)C(=O)N[C@@H](CC(N)=O)C(=O)N[C@H](C(=O)N[C@@H](Cc1ccc(O)cc1)C(N)=O)[C@@H](C)O)C(C)C)[C@@H](C)O
B3: N^-1-[(4S)-4-carboxy-4-(19-carboxynonadecanoylamino)butanoyl]-Gly[Arg1,His14,Arg17,Pro21,Pro27,Pro34]-h-amylin (peptide)
peptide: {C20 diacid-γGlu}-GRCNTATCATQRLAHFLRHSSPNFGAIPSSTNVGPNTY-NH2
modifications: disulfide 3-8
SMILES: CC[C@H](C)[C@H](NC(=O)[C@H](C)NC(=O)CNC(=O)[C@H](Cc1ccccc1)NC(=O)[C@H](CC(N)=O)NC(=O)[C@@H]1CCCN1C(=O)[C@H](CO)NC(=O)[C@H](CO)NC(=O)[C@H](Cc1c[nH]cn1)NC(=O)[C@H](CCCNC(=N)N)NC(=O)[C@H](CC(C)C)NC(=O)[C@H](Cc1ccccc1)NC(=O)[C@H](Cc1c[nH]cn1)NC(=O)[C@H](C)NC(=O)[C@H](CC(C)C)NC(=O)[C@H](CCCNC(=N)N)NC(=O)[C@H](CCC(N)=O)NC(=O)[C@@H](NC(=O)[C@H](C)NC(=O)[C@@H]1CSSC[C@H](NC(=O)[C@H](CCCNC(=N)N)NC(=O)CNC(=O)CC[C@H](NC(=O)CCCCCCCCCCCCCCCCCCC(=O)O)C(=O)O)C(=O)N[C@@H](CC(N)=O)C(=O)N[C@@H]([C@@H](C)O)C(=O)N[C@@H](C)C(=O)N[C@@H]([C@@H](C)O)C(=O)N1)[C@@H](C)O)C(=O)N1CCC[C@H]1C(=O)N[C@@H](CO)C(=O)N[C@@H](CO)C(=O)N[C@H](C(=O)N[C@@H](CC(N)=O)C(=O)N[C@H](C(=O)NCC(=O)N1CCC[C@H]1C(=O)N[C@@H](CC(N)=O)C(=O)N[C@H](C(=O)N[C@@H](Cc1ccc(O)cc1)C(N)=O)[C@@H](C)O)C(C)C)[C@@H](C)O
notes: 38 residues
B4: N{-1}-[(4S)-4-carboxy-4-(19-carboxynonadecanoylamino)butanoyl]-Gly[Arg1,His14,Arg17,Pro21,Pro27]-h-amylin (peptide)
peptide: {C20 diacid-γGlu}-GRCNTATCATQRLAHFLRHSSPNFGAIPSSTNVGSNTY-NH2
modifications: disulfide 3-8
SMILES: CC[C@H](C)[C@H](NC(=O)[C@H](C)NC(=O)CNC(=O)[C@H](Cc1ccccc1)NC(=O)[C@H](CC(N)=O)NC(=O)[C@@H]1CCCN1C(=O)[C@H](CO)NC(=O)[C@H](CO)NC(=O)[C@H](Cc1c[nH]cn1)NC(=O)[C@H](CCCNC(=N)N)NC(=O)[C@H](CC(C)C)NC(=O)[C@H](Cc1ccccc1)NC(=O)[C@H](Cc1c[nH]cn1)NC(=O)[C@H](C)NC(=O)[C@H](CC(C)C)NC(=O)[C@H](CCCNC(=N)N)NC(=O)[C@H](CCC(N)=O)NC(=O)[C@@H](NC(=O)[C@H](C)NC(=O)[C@@H]1CSSC[C@H](NC(=O)[C@H](CCCNC(=N)N)NC(=O)CNC(=O)CC[C@H](NC(=O)CCCCCCCCCCCCCCCCCCC(=O)O)C(=O)O)C(=O)N[C@@H](CC(N)=O)C(=O)N[C@@H]([C@@H](C)O)C(=O)N[C@@H](C)C(=O)N[C@@H]([C@@H](C)O)C(=O)N1)[C@@H](C)O)C(=O)N1CCC[C@H]1C(=O)N[C@@H](CO)C(=O)N[C@@H](CO)C(=O)N[C@H](C(=O)N[C@@H](CC(N)=O)C(=O)N[C@H](C(=O)NCC(=O)N[C@@H](CO)C(=O)N[C@@H](CC(N)=O)C(=O)N[C@H](C(=O)N[C@@H](Cc1ccc(O)cc1)C(N)=O)[C@@H](C)O)C(C)C)[C@@H](C)O
notes: 38 residues; also called compound 99

The binders below were run against T1, human calcitonin receptor (assay: ratio of hCTR IC50 to hAmylin-R IC50 (reference: human amylin receptor)).
Procedure, shortened: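 Competition binding by SPA with cell membranes (35 ng/μL) and SPA beads in 50 mM Hepes pH 7.4 with 1 mM CaCl2, 5 mM MgCl2, 0.1% OA and 0.02% Tween20. Incubated 120 min at 25 °C with shaking, then counted.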

**Q.** B1 was tested. Which “Ratio hCT/hAmylin binding” value did it give?
**A.** 59.4

**Q.** Which “Ratio hCT/hAmylin binding” value does the source give for B2 here?
**A.** 18.5

**Q.** B3 was tested. Which “Ratio hCT/hAmylin binding” value did it give?
**A.** 36.2

**Q.** Which “Ratio hCT/hAmylin binding” value does the source give for B4 here?
**A.** 100

These binders were tested against T1, human calcitonin receptor (assay: SPA competition on BHK cell membranes, 125I-calcitonin as radioligand (Assay VII)).
Procedure, shortened: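 BHK hCTR membranes 35 ng/μL + SPA beads 0.05 mg/well; buffer 50 mM Hepes pH 7.4, 1 mM CaCl2, 5 mM MgCl₂, 0.1% OA, 0.02% Tween20. 120 min, 25° C., shaking. Scintillation count; IC50 by one-site binding competition.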

**Q.** Which IC50 does the source give for B1 here?
**A.** 22.7 nM

**Q.** B2 was tested. Which IC50 did it give?
**A.** 10.8 nM

**Q.** For B3, which IC50 is on record?
**A.** 7.87 nM

**Q.** For B4, which IC50 is on record?
**A.** 35 nM
